Data from patent EP1443117B1 (UNIVERSITY OF VIRGINIA PATENT FOUNDATION, dated 2010).

Target: T1, tssk 2 fused to the GAL4 DNA binding domain (DNA-BD) (human, UniProt P04386 1-147 (Saccharomyces cerevisiae entry), limits assumed)
T1 construct: Yeast two-hybrid bait expressed in reporter strain AH109; also called bait gene (tssk 2); fusion protein of TSSK2 with the DNA-BD
Assay: yeast two-hybrid, growth in His-free medium (AH109 reporter strain)

binding result: no binding
B1: GAL4 activation domain alone (GAL-AD plasmid) (other, UniProt P04386 768-881, looked up)
chain: ANFNQSGNIADSSLSFTFTNSSNGPNLITTQTNSQALSQPIASSNVHDNFMNNEITASKIDDGNNSKPLSPGWTDQTAYNAFGITTGMFNTTTMDDVYNYLFDDEDTPPNPKKE
notes: also called GAL-AD alone
